Measured values taken from paper PMC4108388, “The Structure of RdDddP from Roseobacter denitrificans Reveals That DMSP Lyases in the DddP-Family Are Metalloenzymes” (PLoS ONE, 2014).

Biological target: the molecule itself
Assay: crystal structure; RdDddP crystallised in 4-4.5 M sodium chloride, 0.1 M Bis-Tris pH 6.5; space group P6(3)22, one molecule per asymmetric unit, dimer formed with a chain related by crystallographic symmetry; 2.15 Å native dataset

B1: putative DddP DMSP lyase from Roseobacter denitrificans Och 114 (enzyme, UniProt Q166H0 1-447, looked up)
chain: MNRHFNATRKIDPSRGATLGDGSPNDMNRVEIGPTQLAFAEWHTARLDLPDLAAMRRFRHRRLTDHVVARGYAGLLMFDPLNIRYATDSTNMQLWNTHNPFRATLLCADGYMVMWDYKNSPFLSEFNPLVREQRAGADLFYFDRGDKVDVAADVFANEVRILLRDHAPGLRRLAVDKVMLHGLRALQAQGFEIMDGEEVTEKARSVKGPDEIRAMRCASHACEVAVRKMEDFARSKVGDGVTCENDIWAILHSENVRRGGEWIETRLLASGPRSNPWFQECGPRVCQRNEIISFDTDLVGAYGICTDISRSWWIGDQKPRADMIYAMQHGVEHIRTNMEMLKPGVMIPELSANTHVLDAKFQKQKYGCLMHGVGLCDEWPLVAYPDHAVAGAYDYPLEPGMTLCVEALISEEGGDFSIKLEDQVLITEDGYENLTKYPFDPALMGVE
notes: putative DMSP lyase DddP (RdDddP), Roseobacter denitrificans Och 114, YP_682809; 453 residues, 51 kDa; the gene was amplified with printed primers that run from the ATG start codon to the stop codon; residues 10-444 are described in the structure; Homodimer formed by crystallographic symmetry; A few vector residues probably remain at the N-terminus after thrombin cleavage (NheI cloning in pET28); …
stoichiometry N: 2
